How the values were obtained:
Assay type in all cases: in vivo, NOD/SCID mice
[1] = Small animal PET/CT imaging, H460 tumor bearing mice; settings: NOD/SCID, mouse, iv, total radioactivity
[2] = system: H460 (αvβ6^-) xenografts; assay: as above; settings: H460 tumor bearing mice, quantitative PET, mean ± s.d., n = 3
[3] = Small animal PET/CT imaging, H2009 tumor bearing mice; settings: NOD/SCID, mouse, iv, total radioactivity
[4] = system: H2009 (αvβ6^+) xenografts; assay: as above; settings: for increase of kidney uptake as compared to 64Cu-M10 / Tumor uptake / Tumor/Lung: H2009 tumor bearing mice; for increase of kidney uptake as compared to 64Cu-M10: 1 h, 4 h; for Tumor uptake: quantitative PET, mean ± s.d.; for Tumor uptake / Tumor/Lung: n = 3; for Tumor/Lung: ratio of PET uptakes; for tumor uptake increase as compared to 64Cu-M10: H2009 tumor, all three time points (1 h, 4 h, 24 h p.i.)

## CC(C)C[C@H](NC(=O)[C@H](CCC(N)=O)NC(=O)[C@H](CCCNC(=N)N)NC(=O)[C@H](CC(C)C)NC(=O)[C@@H](NC(=O)[C@H](C)NC(=O)[C@H](CC(C)C)NC(=O)[C@H](CC(=O)O)NC(=O)CNC(=O)[C@@H](N)CCCNC(=N)N)[C@@H](C)O)C(=O)NCCOCCOCCOCCOCCOCCOCCOCCOCCOCCOCCOCCOCCC(=O)N[C@@H](CSC1CC(=O)N(CCC(=O)NCCCC[C@H](NC(=O)CCN2C(=O)CC(SC[C@H](NC(=O)CCOCCOCCOCCOCCOCCOCCOCCOCCOCCOCCOCCOCCNC(=O)[C@H](CC(C)C)NC(=O)[C@H](CCC(N)=O)NC(=O)[C@H](CCCNC(=N)N)NC(=O)[C@H](CC(C)C)NC(=O)[C@@H](NC(=O)[C@H](C)NC(=O)[C@H](CC(C)C)NC(=O)[C@H](CC(=O)O)NC(=O)CNC(=O)[C@@H](N)CCCNC(=N)N)[C@@H](C)O)C(N)=O)C2=O)C(=O)NCCC(=O)N[C@@H](CSC2CC(=O)N(CCNC(=O)CCC(C(=O)O)N3CCCN4CCN(CCCN(CC(=O)O)CC4)CC3)C2=O)C(N)=O)C1=O)C(N)=O (stereo partly shown) [^64Cu-D10, metal not drawn]
[1]; heart
  tissue uptake at 1 h: 1.41 ± 0.43 %ID/g
  tissue uptake at 4 h: 0.77 ± 0.09 %ID/g
  tissue uptake at 24 h: 0.47 ± 0.09 %ID/g
[1]; kidney
  tissue uptake at 1 h: 43.3 ± 5.4 %ID/g
  tissue uptake at 4 h: 50.1 ± 3.87 %ID/g
  tissue uptake at 24 h: 19.8 ± 2.38 %ID/g
[1]; liver
  tissue uptake at 1 h: 2.63 ± 0.92 %ID/g
  tissue uptake at 4 h: 2.3 ± 0.26 %ID/g
  tissue uptake at 24 h: 1.83 ± 0.15 %ID/g
[1]; lung
  tissue uptake at 1 h: 1.33 ± 0.3 %ID/g
  tissue uptake at 4 h: 0.77 ± 0.07 %ID/g
  tissue uptake at 24 h: 0.45 ± 0.17 %ID/g
[1]; muscle
  tissue uptake at 1 h: 0.75 ± 0.24 %ID/g
  tissue uptake at 4 h: 0.31 ± 0.06 %ID/g
  tissue uptake at 24 h: 0.33 ± 0.08 %ID/g
[2]; 1 h p.i.
  Tumor uptake: 0.86 ± 0.21 %ID/g
[2]; 4 h p.i.
  Tumor uptake: 0.52 ± 0.05 %ID/g
[2]; 24 h p.i.
  Tumor uptake: 0.39 ± 0.04 %ID/g
[3]; heart
  tissue uptake at 1 h: 1.26 ± 0.37 %ID/g
  tissue uptake at 4 h: 0.79 ± 0.27 %ID/g
  tissue uptake at 24 h: 0.42 ± 0.1 %ID/g
[3]; kidney
  tissue uptake at 1 h: 43.5 ± 1.8 %ID/g
  tissue uptake at 4 h: 39.3 ± 5.66 %ID/g
  tissue uptake at 24 h: 21.4 ± 0.57 %ID/g
[3]; liver
  tissue uptake at 1 h: 2 ± 0.1 %ID/g
  tissue uptake at 4 h: 1.56 ± 0.11 %ID/g
  tissue uptake at 24 h: 1.01 ± 0.14 %ID/g
[3]; lung
  tissue uptake at 1 h: 1.86 ± 0.2 %ID/g
  tissue uptake at 4 h: 0.99 ± 0.18 %ID/g
  tissue uptake at 24 h: 0.62 ± 0.23 %ID/g
[3]; muscle
  tissue uptake at 1 h: 0.8 ± 0.11 %ID/g
  tissue uptake at 4 h: 0.4 ± 0.03 %ID/g
  tissue uptake at 24 h: 0.27 ± 0.13 %ID/g
[4]; 24 h p.i.
  increase of kidney uptake as compared to 64Cu-M10: ~6 fold
  Tumor uptake: 0.89 ± 0.26 %ID/g
  Tumor/Lung: 1.4 ± 0.34
[4]; 1 h p.i.
  Tumor uptake: 1.53 ± 0.15 %ID/g
  Tumor/Lung: 0.8 ± 0.25
[4]; 4 h p.i.
  Tumor uptake: 1.2 ± 0.26 %ID/g
  Tumor/Lung: 1.2 ± 0.31
[4]
  tumor uptake increase as compared to 64Cu-M10: ~3 fold

## CC(C)C[C@H](NC(=O)[C@H](CCC(N)=O)NC(=O)[C@H](CCCNC(=N)N)NC(=O)[C@H](CC(C)C)NC(=O)[C@@H](NC(=O)[C@H](C)NC(=O)[C@H](CC(C)C)NC(=O)[C@H](CC(=O)O)NC(=O)CNC(=O)[C@@H](N)CCCNC(=N)N)[C@@H](C)O)C(=O)NCCOCCOCCOCCOCCOCCOCCOCCOCCOCCOCCOCCOCCC(=O)N[C@@H](CSC1CC(=O)N(CCNC(=O)CCC(C(=O)O)N2CCCN3CCN(CCCN(C(CCC(=O)NCCN4C(=O)CC(SC[C@H](NC(=O)CCOCCOCCOCCOCCOCCOCCOCCOCCOCCOCCOCCOCCNC(=O)[C@H](CC(C)C)NC(=O)[C@H](CCC(N)=O)NC(=O)[C@H](CCCNC(=N)N)NC(=O)[C@H](CC(C)C)NC(=O)[C@@H](NC(=O)[C@H](C)NC(=O)[C@H](CC(C)C)NC(=O)[C@H](CC(=O)O)NC(=O)CNC(=O)[C@@H](N)CCCNC(=N)N)[C@@H](C)O)C(N)=O)C4=O)C(=O)O)CC3)CC2)C1=O)C(N)=O (stereo partly shown) [^64Cu-(M10)2, metal not drawn]
[1]; heart
  tissue uptake at 1 h: 1.7 %ID/g
  tissue uptake at 4 h: 1.25 ± 0.07 %ID/g
  tissue uptake at 24 h: 0.83 ± 0.17 %ID/g
[1]; kidney
  tissue uptake at 1 h: 85.4 ± 17.5 %ID/g
  tissue uptake at 4 h: 92.9 ± 11.3 %ID/g
  tissue uptake at 24 h: 68.9 ± 8.13 %ID/g
[1]; liver
  tissue uptake at 1 h: 5.45 ± 0.49 %ID/g
  tissue uptake at 4 h: 4.8 ± 0.14 %ID/g
  tissue uptake at 24 h: 3.25 ± 0.21 %ID/g
[1]; lung
  tissue uptake at 1 h: 1.5 ± 0.14 %ID/g
  tissue uptake at 4 h: 1.15 ± 0.07 %ID/g
  tissue uptake at 24 h: 0.77 ± 0.01 %ID/g
[1]; muscle
  tissue uptake at 1 h: 0.45 ± 0.18 %ID/g
  tissue uptake at 4 h: 0.31 ± 0.06 %ID/g
  tissue uptake at 24 h: 0.38 ± 0.08 %ID/g
[2]; 1 h p.i.
  Tumor uptake: 0.71 ± 0.05 %ID/g
[2]; 4 h p.i.
  Tumor uptake: 0.83 ± 0.04 %ID/g
[2]; 24 h p.i.
  Tumor uptake: 0.53 ± 0.17 %ID/g
[3]; heart
  tissue uptake at 1 h: 1.56 ± 0.15 %ID/g
  tissue uptake at 4 h: 0.71 ± 0.03 %ID/g
  tissue uptake at 24 h: 0.32 ± 0.03 %ID/g
[3]; kidney
  tissue uptake at 1 h: 53.6 ± 8.68 %ID/g
  tissue uptake at 4 h: 46.2 ± 10.4 %ID/g
  tissue uptake at 24 h: 27.3 ± 7.3 %ID/g
[3]; liver
  tissue uptake at 1 h: 2.13 ± 0.73 %ID/g
  tissue uptake at 4 h: 1.9 %ID/g
  tissue uptake at 24 h: 1.26 ± 0.25 %ID/g
[3]; lung
  tissue uptake at 1 h: 1.66 ± 0.15 %ID/g
  tissue uptake at 4 h: 0.72 ± 0.02 %ID/g
  tissue uptake at 24 h: 0.4 ± 0.03 %ID/g
[3]; muscle
  tissue uptake at 1 h: 0.87 ± 0.04 %ID/g
  tissue uptake at 4 h: 0.3 ± 0.02 %ID/g
  tissue uptake at 24 h: 0.25 ± 0.05 %ID/g
[4]; 24 h p.i.
  increase of kidney uptake as compared to 64Cu-M10: ~6 fold
  Tumor uptake: 0.79 ± 0.03 %ID/g
  Tumor/Lung: 1.9 ± 0.04
[4]; 1 h p.i.
  Tumor uptake: 1.6 ± 0.20 %ID/g
  Tumor/Lung: 1.0 ± 0.25
[4]; 4 h p.i.
  Tumor uptake: 0.85 ± 0.19 %ID/g
  Tumor/Lung: 1.2 ± 0.19
[4]
  tumor uptake increase as compared to 64Cu-M10: ~3 fold
